# Measured values from patent publication US5919635A (ZymoGenetics, Inc., priority 1995, dated 1999).
# Target: T1, rat liver membranes (glucagon receptor) (Rattus norvegicus, UniProt P30082)
# T1 construct: Two batches of liver membranes were each prepared from approximately 80 gm of liver; from tissue; host or cells: rat liver membranes
# Test: Competition binding / Scatchard analysis with ^125 I-glucagon on rat liver membranes
# Conditions: 30 minutes at 30° C., read-out: apparent Kd
# Description: Membranes from the pLJ4 BHK transfectants were compared with rat liver membrane preparations for the ability to bind ^125 I-glucagon. Membranes were prepared essentially described by Rodbell et al. (J. Biol Chem. 246:1861-1871, 1971, which is incorporated by reference herein in its entirety). Two batches of liver membranes were each prepared from approximately 80 gm of liver from 12 to 16 decapitated young female rats. The livers were removed quickly and placed into an iced beaker. The livers were separated into ten-gram portions. The portions were minced with scissors, and connective tissue was removed during the mincing procedure. The portions were separately homogenized in a Dounce homogenizer. […] The concentration of the solution was adjusted to 44.0%+/-0.1% using 69% sucrose or water as measured by a refractometer (Bausch & Lomb, Rochester, N.Y.). […]
# The supernatant was carefully decanted and discarded. […] The absorbance was read in 1 cm cuvettes to determine protein concentration. Protein concentration was determined using the formula: [formula] […]
# To each tube 100 μl of 2× binding buffer; 20 μl of ^125 I-glucagon (Amersham); 20 μl of 1 mM NaHCO3; 20 μl 10 mM HOAc, 0.5% BSA (Novo Nordisk N/A, Bagsvaerd, Denmark); and 40 μl of distilled water were added. […] The supernatants from each sample were aspirated, and the pellets were counted.
# T1 sequence (P30082 27-485): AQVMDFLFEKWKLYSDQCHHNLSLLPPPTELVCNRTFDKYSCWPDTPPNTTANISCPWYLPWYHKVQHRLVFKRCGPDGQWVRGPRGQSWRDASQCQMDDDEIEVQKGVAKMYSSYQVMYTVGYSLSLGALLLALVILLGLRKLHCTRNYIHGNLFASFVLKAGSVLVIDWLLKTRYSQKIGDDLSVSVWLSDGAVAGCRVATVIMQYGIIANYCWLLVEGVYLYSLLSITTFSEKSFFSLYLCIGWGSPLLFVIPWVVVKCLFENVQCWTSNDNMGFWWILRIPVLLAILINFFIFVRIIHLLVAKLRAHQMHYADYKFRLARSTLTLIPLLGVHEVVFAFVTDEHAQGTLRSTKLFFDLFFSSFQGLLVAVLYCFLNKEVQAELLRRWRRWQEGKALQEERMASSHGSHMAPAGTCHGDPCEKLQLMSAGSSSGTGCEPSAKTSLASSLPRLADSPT
substance,measurement,value
glucagon: 29 amino acid hormone produced by the alpha cells of pancreatic islets; human glucagon (Sigma),Kd,49 nM
